One substance from patent US12577303B2 can be followed below.

Like-named read-outs stand apart in the source and are kept apart here.

For assay [1], the target named is human Sirpα-V1 recombinant protein (human) (UniProt P78324). Description: ELISA.
Assay [2] has the same target. Description: ELISA. This is another data set of the same source. For orientation: An ELISA detects its analyte on a solid surface through an enzyme-linked reagent.
Assay [3] shares this target. Description: ELISA. This is another data set of the same source.
Another assay deals with human Sirpβ-his (human) (UniProt O00241). Description: ELISA.
Assay [4] has as its target human Sirpα-V1 on CHO-K1 hSirpα+ cells (human) (UniProt P78324). Description: cell ELISA on CHO-K1 hSirpα+ cells.
Assay [5] has the same target. Description: cell ELISA on hSirpα-v1+ cell strain.
For assay [6], the target named is human T cells (expressing Sirpγ) (human) (UniProt Q9P1W8). Nature of the assay: flow cytometry on human PBMC T cells. (Flow cytometry measures light scatter and fluorescence of single cells or particles in a stream.)
The target in assay [7] is human Sirpα-V1-hFc (human) (UniProt P78324). Nature of the assay: blocking ELISA: hSirpα (dimer) to CD47.
Assay [8] concerns the target human Sirpα-V1-his (human) (UniProt P78324). Description: blocking ELISA: hSirpα to CD47 (dimer).
Assay [9] concerns the target human Sirpα-V1-hFc (human) (UniProt P78324). Description: blocking ELISA: hSirpα (dimer) to hCD47.
In assay [10] the target is human Sirpα-V1-his (human) (UniProt P78324). Nature of the assay: blocking ELISA: hSirpα to hCD47 (dimer).
For assay [11], the target named is human T cells (expressing Sirpγ) (human) (UniProt Q9P1W8). Nature of the assay: flow cytometry on human PBMC T cells, 10 µg/mL.

Usually EC50 stands for the midpoint of the concentration-response curve. The IC50 is the concentration needed to halve the response being measured. Low values mean inhibition by little substance, high ones a need for much substance.

For the substance “positive control antibody 1 (Ref1, OSE-172)”, the EC50 worked out at 170 pM in assay [1]; 72 pM in assay [2]; 57 pM in assay [3]; 126 pM with human Sirpβ-his (human); 370 pM in assay [4]; 84 pM in [5]. The T-cell binding activity (% binding) in assay [6] turned out to be 1.79%. The IC50 in assay [7] was 3740 pM; in [8], 4160 pM; in assay [9], 4550 pM; in [10] it was 4580 pM. Further, in assay [11], the proportion of cells with fluorescence intensity above 10^3 worked out at 0.49%.
